Data reported in patent US20220127377A1 (DIACCURATE, published 2022).

Target: T1, human PLA2-GIB (mature, active form) (human, UniProt P04054 23-148)
T1 construct: Recombinant human PLA2GIB standard in the ELISA, and endogenous PLA2GIB of patient plasma in the functional assays; also called GIBsPLA2; sPLA2-GIB
Assay: sandwich ELISA, coated capture mAb, recombinant human standard
Procedure: Sandwich ELISAs specific to proPLA2-GIB, PLA2GIB or both forms were performed using mAbs previously generated. For the detection of proPLA2GIB, the #8G11 mAb was used as a capture antibody and the #1C11 mAb was used as a revelation mAb. For the detection of PLA2GIB, the #14G9 mAb was used as a capture antibody and the #1C11 mAb was used as a revelation mAb. For the detection of both forms, the #7A10 mAb was used as a capture antibody and the #1C11 mAb was used as a revelation mAb. Typical assay conditions were as follows: #8G11- or #14G9-coated microplate was incubated for one hour with recombinant human proPLA2GIB or PLA2GIB standards (varying concentrations of protein in assay buffer) to generate a calibration curve. EDTA plasma samples were diluted (5- to 50-fold) in dilution buffer to their respective wells and the ELISA plate was incubated for 1 h at room temperature. […] Following washing with PBS containing 0.05% Tween 20, the binding of mAb was detected by treatment with a Streptavidin-HRP conjugate for 15 min at room temperature. TMB was added, reaction was stopped and absorbance at 450 nm was determined on a microplate reader. Signals were analyzed with a 4-parameter fit analysis using Prism™ software (Graph Pad).

T1 sequence (P04054 23-148): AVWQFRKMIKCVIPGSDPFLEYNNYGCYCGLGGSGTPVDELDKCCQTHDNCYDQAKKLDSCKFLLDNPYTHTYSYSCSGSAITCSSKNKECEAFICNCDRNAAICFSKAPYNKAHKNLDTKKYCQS

B1: monoclonal antibody 14G9 (antibody, V domains shown)
VH: QVQLQQPGAELVKPGASVKLSCKASGYTFTNYWIHWVKRRPGQGLEWIGNIDPSDTRTHYNQKFKDKATLAVDKSSSTAYMQLSSLTSEDSAVFYCARQTLYYEALDYWGQGTTLTVSS
VL: DIVMTQSHKLMSTSVGDRVSITCKASQDVSTAVAWYQEKPGQSPKLLIYWASTRHTGVPNRFTGSRSGTDYTLTISSVQAEDLALYYCQQDYSTPPTFGAGTKLELKR
notes: also called #14G9 mAb; clone 14G9
B1: binds.
